Assay results as given in patent publication US20250186594A1 (BRIGHT PEAK THERAPEUTICS, published 2025).
Where a chain is given by its changes, count along the chain named. Names may count otherwise. Blank lines part the entries; values can stand above or below the binder they belong to.

Tests used:
[1] = target: T1, IL-18Rα/β heterodimer (Fc fused human IL-18Rα mixed with Fc fused human IL-18Rβ) (human, UniProt Q13478 19-329; O95256 20-356, limits assumed); test: SPR, Fc-IL-18Rα/β captured, heterogeneous ligand fit
T1 construct: Alpha and beta Fc fusions were mixed and pre-incubated for 30 min before capture on anti-human IgG; also called alpha/beta heterodimer IL-18 receptor; heterodimeric human IL-18 receptor alpha (CD218a) and IL-18R accessory protein (IL-18RAP/CDw218b); not shown: Fc
T1 sequence (looked up) 1: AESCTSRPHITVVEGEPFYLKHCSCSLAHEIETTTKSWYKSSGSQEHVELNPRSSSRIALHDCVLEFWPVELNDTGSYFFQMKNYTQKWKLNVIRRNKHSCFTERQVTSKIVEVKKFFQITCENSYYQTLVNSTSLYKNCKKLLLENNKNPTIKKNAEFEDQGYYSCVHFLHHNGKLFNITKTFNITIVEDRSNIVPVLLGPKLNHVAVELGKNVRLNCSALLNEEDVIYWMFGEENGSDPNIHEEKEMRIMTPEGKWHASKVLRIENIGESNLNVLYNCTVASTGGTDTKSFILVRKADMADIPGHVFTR
T1 sequence (looked up) 2: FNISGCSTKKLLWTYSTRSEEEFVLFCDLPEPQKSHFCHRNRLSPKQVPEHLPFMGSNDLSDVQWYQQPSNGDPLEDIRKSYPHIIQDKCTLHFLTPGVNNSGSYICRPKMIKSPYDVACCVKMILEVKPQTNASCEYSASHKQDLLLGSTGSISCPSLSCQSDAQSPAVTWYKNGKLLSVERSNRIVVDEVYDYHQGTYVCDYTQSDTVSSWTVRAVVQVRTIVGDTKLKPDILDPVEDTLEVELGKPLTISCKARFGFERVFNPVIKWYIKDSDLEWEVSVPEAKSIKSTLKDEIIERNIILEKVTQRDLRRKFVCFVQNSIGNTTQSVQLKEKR
Experimental: (§1) The interaction of the wild type and of modified IL-18 polypeptides with human IL-18 receptor subunits are measured with Surface Plasmon Resonance (SPR) technology. Anti-human IgG antibodies are bound by amine coupling onto a CM5 chip to capture 6 µg/mL of Fc fused human IL-18Rα, […] of Fc fused human IL-18Rβ, or […] of Fc fused human IL-18BP isoform a (IL-18BPa) for 30 min before capture. In other settings, […] of alpha and beta IL-18 receptors are mixed and pre-incubated for 30 min before capture of the alpha/beta heterodimer IL-18 receptor.
(§2) The kinetic binding of the IL-18 analytes are measured with a Biacore 8K instrument in two fold serial dilutions starting at […] down to 0.98 nM. Regeneration of the surface back to amine coupled anti IgG antibody is done after every concentration of analyte. To measure the protein association to the receptors, the samples are injected with a flow rate of […] for 60 s, followed by 300 s buffer only to detect the dissociation. The used running buffer is 1×PBS with 0.05% Tween20. The relative response units (RU, Y-axis) are plotted against time (s, X-axis) and analyzed in a kinetic 1:1 binding model for the monomer receptor binding and for the binding to the IL-18BP. A kinetic heterogenous ligand fit model is applied for the alpha/beta heterodimer binding.

[2] = target: T2, IL-18 receptor (IL-18R) on HEK-Blue IL18R reporter cells (UniProt Q13478 19-541; O95256 20-599, limits assumed); test: cell-based or functional assay
T2 sequence (looked up) 1: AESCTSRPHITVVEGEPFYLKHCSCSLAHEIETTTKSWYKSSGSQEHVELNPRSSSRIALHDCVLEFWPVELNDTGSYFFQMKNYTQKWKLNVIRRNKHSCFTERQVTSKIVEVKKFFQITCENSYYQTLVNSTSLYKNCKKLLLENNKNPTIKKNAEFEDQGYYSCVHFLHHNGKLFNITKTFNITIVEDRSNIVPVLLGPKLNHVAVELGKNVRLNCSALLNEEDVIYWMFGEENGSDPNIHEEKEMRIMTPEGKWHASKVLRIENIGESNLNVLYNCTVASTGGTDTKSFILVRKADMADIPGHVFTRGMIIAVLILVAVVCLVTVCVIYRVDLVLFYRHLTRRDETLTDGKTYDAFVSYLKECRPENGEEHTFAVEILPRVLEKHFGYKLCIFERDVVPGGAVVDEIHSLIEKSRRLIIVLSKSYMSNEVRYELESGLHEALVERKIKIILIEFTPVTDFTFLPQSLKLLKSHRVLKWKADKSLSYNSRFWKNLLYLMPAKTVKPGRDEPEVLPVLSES
T2 sequence (looked up) 2: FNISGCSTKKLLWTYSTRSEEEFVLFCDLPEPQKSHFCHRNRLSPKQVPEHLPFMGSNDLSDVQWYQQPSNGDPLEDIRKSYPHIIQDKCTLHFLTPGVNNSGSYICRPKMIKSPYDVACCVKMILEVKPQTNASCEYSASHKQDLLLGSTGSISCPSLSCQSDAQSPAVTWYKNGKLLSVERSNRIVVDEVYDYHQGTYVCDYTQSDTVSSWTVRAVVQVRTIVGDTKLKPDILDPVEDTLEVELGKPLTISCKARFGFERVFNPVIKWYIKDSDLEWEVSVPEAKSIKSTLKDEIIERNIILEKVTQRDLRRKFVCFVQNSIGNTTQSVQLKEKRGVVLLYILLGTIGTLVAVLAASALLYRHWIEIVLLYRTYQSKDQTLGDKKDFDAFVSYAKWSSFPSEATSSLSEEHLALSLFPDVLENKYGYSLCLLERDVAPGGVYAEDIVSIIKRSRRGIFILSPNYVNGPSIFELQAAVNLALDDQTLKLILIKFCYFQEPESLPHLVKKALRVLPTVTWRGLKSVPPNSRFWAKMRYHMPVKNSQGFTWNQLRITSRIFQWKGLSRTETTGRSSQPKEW

[3] = target: T2, IL-18 receptor (IL-18R) on HEK-Blue …; test: cell-based or functional assay; remark: listed apart in the source
[4] = target: T3, Fc fused human IL-18Rα (human, UniProt Q13478 19-329, limits assumed); test: SPR, Fc-IL-18Rα captured, 1:1 fit
T3 construct: also called IL-18Rα monomer; human IL-18 receptor alpha (CD218a); not shown: Fc
T3 sequence (looked up): T1 sequence (looked up) 1
Experimental: as §1, §2

- Kd [1]: 490 pM
- koff [1]: 0.000311 s⁻¹
- kon [1]: 866000 M⁻¹ s⁻¹
- EC50 (read off the curve); SEAP reporter in HEK-Blue IL18R cells (OD 620 nM) [2]: ~0.05 pM
- EC50, HEK-Blue IL18R reporter [3]: 53 pM
- Kd [4]: 30300 pM
- koff [4]: 0.0536 s⁻¹
- kon [4]: 1.77e+06 M⁻¹ s⁻¹
B1: IL-18 variant SEQ ID NO: 30 (E6K, V11I, C38A, K53A, T63A, C76A, C127A) (ligand)
chain: YFGKLKSKLSIIRNLNDQVLFIDQGNRPLFEDMTDSDARDNAPRTIFIISMYADSQPRGMAVAISVKCEKISTLSAENKIISFKEMNPPDNIKDTKSDIIFFQRSVPGHDNKMQFESSSYEGYFLAAEKERDLFKLILKKEDELGDRSIMFTVQNED

- EC50 (read off the curve); SEAP reporter in HEK-Blue IL18R cells (OD 620 nM) [2]: ~0.1 pM
- EC50, HEK-Blue IL18R reporter [3]: 100 pM
B2: IL-18 variant SEQ ID NO: 239 (E6K, V11I, C38A, M51G, K53A, T63A, C76A, C127A) (ligand)
chain: B1 chain with M51G

- EC50 (read off the curve); SEAP reporter in HEK-Blue IL18R cells (OD 620 nM) [2]: ~4 pM
- EC50, HEK-Blue IL18R reporter [3]: 800 pM
B3: IL-18 variant SEQ ID NO: 207 (V11I, C38A, M51G, K53A, C76A, C127A) (ligand)
chain: B1 chain with K6E, M51G, A63T

- Kd [1]: 410 pM
- koff [1]: 0.000467 s⁻¹
- kon [1]: 1.15e+06 M⁻¹ s⁻¹
- EC50, HEK-Blue IL18R reporter [3]: 13.9 pM
- Kd [4]: 42200 pM
- koff [4]: 0.976 s⁻¹
- kon [4]: 2.31e+07 M⁻¹ s⁻¹
B4: IL-18 variant SEQ ID NO: 63 (E6K, C38A, K53A, C76A, C127A) (ligand)
chain: B1 chain with I11V, A63T

- Kd [1]: 660 pM
- koff [1]: 0.000815 s⁻¹
- kon [1]: 1.24e+06 M⁻¹ s⁻¹
- EC50 (read off the curve); SEAP reporter in HEK-Blue IL18R cells (OD 620 nM) [2]: ~0.3 pM
- EC50, HEK-Blue IL18R reporter [3]: 268 pM
- Kd [4]: 17800 pM
- koff [4]: 0.0165 s⁻¹
- kon [4]: 1.77e+06 M⁻¹ s⁻¹
B5: IL-18 variant SEQ ID NO: 59 (E6K, C38A, K53A) (ligand)
chain: B1 chain with I11V, A63T, A76C, A127C

- EC50 (read off the curve); SEAP reporter in HEK-Blue IL18R cells (OD 620 nM) [2]: ~3 pM
- EC50, HEK-Blue IL18R reporter [3]: 2500 pM
B6: IL-18 variant SEQ ID NO: 241 (N-terminal 4xG, E6K, V11I, C38A, K53A, T63A, C76A, C127A) (ligand)
chain: GGGGYFGKLKSKLSIIRNLNDQVLFIDQGNRPLFEDMTDSDARDNAPRTIFIISMYADSQPRGMAVAISVKCEKISTLSAENKIISFKEMNPPDNIKDTKSDIIFFQRSVPGHDNKMQFESSSYEGYFLAAEKERDLFKLILKKEDELGDRSIMFTVQNED

- EC50 (read off the curve); SEAP reporter in HEK-Blue IL18R cells (OD 620 nM) [2]: ~2 pM
- EC50, HEK-Blue IL18R reporter [3]: 1680 pM
B7: IL-18 variant SEQ ID NO: 242 (N-terminal G, E6K, V11I, C38A, K53A, T63A, C76A, C127A) (ligand)
chain: GYFGKLKSKLSIIRNLNDQVLFIDQGNRPLFEDMTDSDARDNAPRTIFIISMYADSQPRGMAVAISVKCEKISTLSAENKIISFKEMNPPDNIKDTKSDIIFFQRSVPGHDNKMQFESSSYEGYFLAAEKERDLFKLILKKEDELGDRSIMFTVQNED

- EC50 (read off the curve); SEAP reporter in HEK-Blue IL18R cells (OD 620 nM) [2]: ~10 pM
- EC50, HEK-Blue IL18R reporter [3]: 14000 pM
B8: IL-18 variant SEQ ID NO: 244 (N-terminal G, E6K, V11I, C38A, M51G, K53A, T63A, C76A, C127A) (ligand)
chain: B7 chain with M52G
